Experimental data published in PMC10720262, “Molecular determinants of cross-reactivity and potency by VH3-33 antibodies against the Plasmodium falciparum circumsporozoite protein” (Cell Reports, 2023).

Key:
mAb CIS43 [1] = experiment: SPR; Carterra LSA; mAb amine-coupled to a CMD200M chip, peptide titrated in 2-fold steps up to 8 ug/mL without regeneration; 25 C; HBSTE (10 mM HEPES pH 7.4, 150 mM NaCl, 3 mM EDTA, 0.01% Tween 20); 1:1 Langmuir model; mean of triplicates; KD includes avidity for antigens with several repeats
mAb 317 [2] = experiment: as above
mAb CIS43 [3] = experiment: SPR
mAb 317 [4] = experiment: SPR

mAb CIS43, sequence (heavy, as listed by the source, chain 1 of 2): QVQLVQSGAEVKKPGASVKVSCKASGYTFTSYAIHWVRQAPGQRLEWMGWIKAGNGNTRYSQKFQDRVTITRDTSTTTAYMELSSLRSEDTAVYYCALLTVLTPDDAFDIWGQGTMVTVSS
mAb CIS43, sequence (light, as listed by the source, chain 2 of 2): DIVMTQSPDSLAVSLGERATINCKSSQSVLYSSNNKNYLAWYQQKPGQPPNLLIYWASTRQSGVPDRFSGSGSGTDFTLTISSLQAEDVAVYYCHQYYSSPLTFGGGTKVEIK
mAb 317, sequence (heavy, as listed by the source, chain 1 of 2): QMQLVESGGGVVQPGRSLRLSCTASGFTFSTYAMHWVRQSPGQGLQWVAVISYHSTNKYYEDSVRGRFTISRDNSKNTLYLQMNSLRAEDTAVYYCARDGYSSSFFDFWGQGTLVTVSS
mAb 317, sequence (light, as listed by the source, chain 2 of 2): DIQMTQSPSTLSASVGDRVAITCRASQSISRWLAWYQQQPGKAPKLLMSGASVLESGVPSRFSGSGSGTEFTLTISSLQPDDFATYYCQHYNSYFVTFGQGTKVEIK

Row | Kd (mAb CIS43 [3]) | Kd (mAb 317 [4]) | koff (mAb 317 [4]) | kon (mAb 317 [4]) | Substance | Kd (mAb CIS43 [1]) | koff (mAb CIS43 [1]) | kon (mAb CIS43 [1]) | Kd (mAb 317 [2]) | koff (mAb 317 [2]) | kon (mAb 317 [2])
1 |  |  |  |  | NPNA3 peptide | 9430 nM | 0.0706 s⁻¹ | 7940 M⁻¹ s⁻¹ | 7.03 nM | 0.00138 s⁻¹ | 197000 M⁻¹ s⁻¹
2 | 1720 nM | 16.6 nM | 0.0206 s⁻¹ | 1.24e+06 M⁻¹ s⁻¹ | NANP3 peptide |  |  |  |  |  | 
3 |  |  |  |  | NPDP peptide | 19.1 nM | 0.00216 s⁻¹ | 113000 M⁻¹ s⁻¹ | 4560 nM | 0.0454 s⁻¹ | 10000 M⁻¹ s⁻¹
